Test results from US20030219813A1 (Takeda / Millennium, published 2003).

T1: SCUBE1.Myc (human SCUBE1 tagged with Myc at the C-terminus, endogenous signal peptide) (human, UniProt Q8IWY4 23-988)
T1 construct: Expressed by transient transfection in HEK-293 / 293T cells; also called Myc-tagged human SCUBE1
T1 chain: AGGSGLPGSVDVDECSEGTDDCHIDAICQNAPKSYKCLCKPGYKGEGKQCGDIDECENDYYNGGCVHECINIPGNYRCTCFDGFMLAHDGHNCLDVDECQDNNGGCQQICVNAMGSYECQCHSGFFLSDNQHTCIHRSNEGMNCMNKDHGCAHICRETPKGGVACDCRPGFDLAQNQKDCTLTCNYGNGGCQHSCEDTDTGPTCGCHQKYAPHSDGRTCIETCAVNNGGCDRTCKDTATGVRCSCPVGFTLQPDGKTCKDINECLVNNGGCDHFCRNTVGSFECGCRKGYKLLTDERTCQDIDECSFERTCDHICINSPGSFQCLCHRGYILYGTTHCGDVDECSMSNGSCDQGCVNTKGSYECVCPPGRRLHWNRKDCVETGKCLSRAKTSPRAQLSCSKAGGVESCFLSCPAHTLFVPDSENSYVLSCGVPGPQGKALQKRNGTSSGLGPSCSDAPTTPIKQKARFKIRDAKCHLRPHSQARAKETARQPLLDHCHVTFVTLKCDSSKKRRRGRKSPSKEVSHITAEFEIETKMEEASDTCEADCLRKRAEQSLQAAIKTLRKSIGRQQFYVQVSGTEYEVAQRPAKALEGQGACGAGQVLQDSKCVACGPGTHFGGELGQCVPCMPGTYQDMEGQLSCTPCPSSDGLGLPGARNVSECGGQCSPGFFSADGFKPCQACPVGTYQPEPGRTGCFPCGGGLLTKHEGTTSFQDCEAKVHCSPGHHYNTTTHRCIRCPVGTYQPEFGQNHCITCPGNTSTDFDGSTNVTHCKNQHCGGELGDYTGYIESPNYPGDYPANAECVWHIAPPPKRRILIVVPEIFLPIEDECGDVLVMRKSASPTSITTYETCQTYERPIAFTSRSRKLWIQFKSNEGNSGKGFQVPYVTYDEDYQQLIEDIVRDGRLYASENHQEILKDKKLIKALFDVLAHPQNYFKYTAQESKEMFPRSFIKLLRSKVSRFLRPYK

B1: Flag.SCUBE1-D2 (Flag-tagged deletion construct 2 of human SCUBE1, amino acids 26-411 of SEQ ID NO:2; spacer, 10th EGF-like domain and CUB domain deleted) (other, not shown: small tags and cut ends)
chain: SGLPGSVDVDECSEGTDDCHIDAICQNAPKSYKCLCKPGYKGEGKQCGDIDECENDYYNGGCVHECINIPGNYRCTCFDGFMLAHDGHNCLDVDECQDNNGGCQQICVNAMGSYECQCHSGFFLSDNQHTCIHRSNEGMNCMNKDHGCAHICRETPKGGVACDCRPGFDLAQNQKDCTLTCNYGNGGCQHSCEDTDTGPTCGCHQKYAPHSDGRTCIETCAVNNGGCDRTCKDTATGVRCSCPVGFTLQPDGKTCKDINECLVNNGGCDHFCRNTVGSFECGCRKGYKLLTDERTCQDIDECSFERTCDHICINSPGSFQCLCHRGYILYGTTHCGDVDECSMSNGSCDQGCVNTKGSYECVCPPGRRLHWNRKDCVETGKCLSRA
B2: human SCUBE2 (SEQ ID NO:4) (other)
chain: RAAGPQEDVDECAQGLDDCHADALCQNTPTSYKCSCKPGYQGEGRQCEDIDECGNELNGGCVHDCLNIPGNYRCTCFDGFMLAHDGHNCLDVDECLENNGGCQHTCVNVMGSYECCCKEGFFLSDNQHTCIHRSEEGLSCMNKDHGCSHICKEAPRGSVACECRPGFELAKNQRDCILTCNHGNGGCQHSCDDTADGPECSCHPQYKMHTDGRSCLEREDTVLEVTESNTTSVVDGDKRVKRRLLMETCAVNNGGCDRTCKDTSTGVHCSCPVGFTLQLDGKTCKDIDECQTRNGGCDHFCKNIVGSFDCGCKKGFKLLTDEKSCQDVDECSLDRTCDHSCINHPGTFACACNRGYTLYGFTHCGDVTTIRTSVTFKLNEGKCSLKNAELFPEGLRPALPEKHSSVKESFRYVNLTCSSGKQVPGAPGRPSTPKEMFITVEFELETNQKEVTASCDLSCIVKRTEKRLRKAIRTLRKAVHREQFHLQLSGMNLDVAKKPPRTSERQAESCGVGQGHAENQCVSCRAGTYYDGARERCILCPNGTFQNEEGQMTCEPCPRPGNSGALKTPEAWNMSECGGLCQPGEYSADGFAPCQLCALGTFQPEAGRTSCFPCGGGLATKHQGATSFQDCETRVQCSPGHFYNTTTHRCIRCPVGTYQPEFGKNNCVSCPGNTTTDFDGSTNITQCKNRRCGGELGDFTGYIESPNYPGNYPANTECTWTINPPPKRRILIVVPEIFLPIEDDCGDYLVMRKTSSSNSVTTYETCQTYERPIAFTSRSKKLWIQFKSNEGNSARGFQVPYVTYDEDYQELIEDIVRDGRLYASENHQEILKDKKLIKALFDVLAHPQNYFKYTAQESREMFPRSFIRLLRSKVSRFLRPYK
notes: protein of 919 amino acids; also called recombinantly expressed SCUBE2
B3: human SCUBE1 (SEQ ID NO:2) (other)
chain: T1 chain
modifications: glycosylated (N-linked, tunicamycin-sensitive)
notes: protein of 988 amino acids; also called Signal peptide-CUB-EGF-like domain-containing protein 1; recombinantly expressed SCUBE1

Assays:
[1] = biological target: T1, SCUBE1.Myc (human SCUBE1 tagged with …); assay: co-immunoprecipitation of detergent lysates, anti-Myc IP, anti-Flag M2 blot (FIG. 8b)
Description: HEK-293 cells were transfected with expression plasmids encoding Flag-tagged full-length SCUBE1, SCUBE1-D1, SCUBE1-D2 and TLR2 (control) proteins, and, two days after transfection, cells were collected and homogenized. Samples of supernatant (S10) were centrifuged at 100,000×g for 30 min to give soluble fractions (S100) and pellets (P100 membrane fraction). Pellets were resuspended in original volumes of homogenization buffer with 0.1 M Na₂CO₃ (pH 12), sonicated briefly, and then incubated on ice for 30 min. Samples were centrifuged again at 100,000×g for 30 min. to give washed fractions S100′ and pellets P100′. Each fraction was subjected to SDS-PAGE and immunoblot analysis using anti-Flag M2 antibody. […] Upon disruption by sonication, however, they are released from the membrane and can be detected in the soluble membrane fraction. […] Flag-SCUBE1 and SCUBE1.Myc were singly or co-transfected in 293T cells. As a control, SCUBE1.Myc was expressed together with Flag-tagged IL-1β receptor (Flag.IL-1R1). Immunoprecipitation (IP) and Western blot (WB) were performed using antisera as indicated. The bands indicate the presence of protein complexes that can be precipitated by one antibody and detected by another. […] The spacer and CUB sequences are not required. […] In each case, a protein complex that could be precipitated with anti-Myc antibody was detected with anti-Flag M2 antibody.

[2] = biological target: the molecule itself; assay: overexpression; method not given
[3] = biological target: B2; assay: overexpression; method not given

B1: binds [1].

B2: binds [2].

B3: binds [3]; binds [2].
